Sequences and labels used below:
T1: human CD73 (SEQ ID NO: 70) (Homo sapiens, UniProt P21589)
T1 construct: purchased BPS Bioscience
T1 sequence (P21589 27-549): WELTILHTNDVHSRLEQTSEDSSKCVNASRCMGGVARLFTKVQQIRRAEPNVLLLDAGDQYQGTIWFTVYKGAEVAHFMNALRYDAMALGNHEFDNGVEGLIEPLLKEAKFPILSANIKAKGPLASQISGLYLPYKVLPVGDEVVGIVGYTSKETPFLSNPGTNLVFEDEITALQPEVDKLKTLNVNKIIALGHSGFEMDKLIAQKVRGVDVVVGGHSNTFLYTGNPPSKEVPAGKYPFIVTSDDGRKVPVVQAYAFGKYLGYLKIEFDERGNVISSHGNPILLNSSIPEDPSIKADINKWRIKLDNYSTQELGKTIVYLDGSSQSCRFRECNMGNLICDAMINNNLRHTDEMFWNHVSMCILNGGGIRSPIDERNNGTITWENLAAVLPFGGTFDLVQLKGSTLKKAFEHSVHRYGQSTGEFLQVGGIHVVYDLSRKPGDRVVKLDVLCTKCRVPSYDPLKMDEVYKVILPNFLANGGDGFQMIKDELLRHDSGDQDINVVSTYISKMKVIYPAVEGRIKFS

B1: CL25_hu_8-4: humanized CL25 antibody, VH and VL in FIG. 1B (antibody, V domains shown)
VH: QVQLVQSGAEVKKPGASVKVSCKASGYTFTSYGLSWVRQATGQGLEWMGEIYPGSGNTYYNEKFKGRVTMTRNTSISTAYMELSSLRSEDTAVYYCARYDYLGSSYGFDYWGAGTTVTVSS
VL: DIQMTQSPSSLSASVGDRVTITCKASQDVSTAVAWYQQKPGKAPKLLLYSASYRYSGVPSRFSGSGSGTDYTLTISSLQPEDFATYYCQQHYNTPYTFGGGTKLEIK
B2: CL25_hu_9-5: humanized CL25 antibody, VH and VL in FIG. 1C (antibody, V domains shown)
VH: QVQLVQSGAEVKKPGSSVKVSCKASGYTFTSYGLSWVRQAPGQGLEWMGEIYPGSGNTYYNEKFKGRVTITADESTSTAYMELSSLRSEDTAVYYCARYDYLGSSYGFDYWGAGTTVTVSS
VL: DIVMTQSPDSLAVSLGERATINCKASQDVSTAVAWYQQKPGQPPKLLIYSASYRYSGVPDRFSGSGSGTDFTLTISSLQAEDVAVYYCQQHYNTPYTFGGGTKLEIK
B3: CL25_hu_11-4: humanized CL25 antibody, VH and VL in FIG. 1A (antibody, V domains shown)
VH: QVQLVQSGAEVKKPGASVKVSCKASGYTFTSYGLSWVRQATGQGLEWMGEIYPGSGNTYYNEKFKGRVTMTANTSISTAYMELSSLRSEDTAVYYCARYDYLGSSYGFDYWGAGTTVTVSS
VL: DIQMTQSPSSLSASVGDRVTITCKASQDVSTAVAWYQQKPGKAPKLLLYSASYRYSGVPSRFSGSGSGTDYTLTISSLQPEDFATYYCQQHYNTPYTFGGGTKLEIK
B4: CL25_hu_8-6: humanized CL25 antibody, VH and VL in FIG. 1C (antibody, V domains shown)
VH: QVQLVQSGAEVKKPGASVKVSCKASGYTFTSYGLSWVRQATGQGLEWMGEIYPGSGNTYYNEKFKGRVTMTRNTSISTAYMELSSLRSEDTAVYYCARYDYLGSSYGFDYWGAGTTVTVSS
VL: AIRMTQSPSSFSASTGDRVTITCKASQDVSTAVAWYQQKPGKAPKLLIYSASYRYSGVPSRFSGSGSGTDFTLTISCLQSEDFATYYCQQHYNTPYTFGGGTKLEIK
B5: CL25_hu_10-6: humanized CL25 antibody, VH and VL in FIG. 1A (antibody, V domains shown)
VH: EVQLVQSGAEVKKPGESLKISCKGSGYTFTSYGLSWVRQMPGKGLEWMGEIYPGSGNTYYNEKFKGQVTISADKSISTAYLQWSSLKASDTAMYYCARYDYLGSSYGFDYWGAGTTVTVSS
VL: AIRMTQSPSSFSASTGDRVTITCKASQDVSTAVAWYQQKPGKAPKLLIYSASYRYSGVPSRFSGSGSGTDFTLTISCLQSEDFATYYCQQHYNTPYTFGGGTKLEIK
B6: CL25_hu_9-4: humanized CL25 antibody, VH and VL in FIG. 1C (antibody, V domains shown)
VH: QVQLVQSGAEVKKPGSSVKVSCKASGYTFTSYGLSWVRQAPGQGLEWMGEIYPGSGNTYYNEKFKGRVTITADESTSTAYMELSSLRSEDTAVYYCARYDYLGSSYGFDYWGAGTTVTVSS
VL: DIQMTQSPSSLSASVGDRVTITCKASQDVSTAVAWYQQKPGKAPKLLLYSASYRYSGVPSRFSGSGSGTDYTLTISSLQPEDFATYYCQQHYNTPYTFGGGTKLEIK
B7: CL25_hu_11-6: humanized CL25 antibody, VH and VL in FIG. 1B (antibody, V domains shown)
VH: QVQLVQSGAEVKKPGASVKVSCKASGYTFTSYGLSWVRQATGQGLEWMGEIYPGSGNTYYNEKFKGRVTMTANTSISTAYMELSSLRSEDTAVYYCARYDYLGSSYGFDYWGAGTTVTVSS
VL: AIRMTQSPSSFSASTGDRVTITCKASQDVSTAVAWYQQKPGKAPKLLIYSASYRYSGVPSRFSGSGSGTDFTLTISCLQSEDFATYYCQQHYNTPYTFGGGTKLEIK
B8: CL25_hu_10-4: humanized CL25 antibody, VH and VL in FIG. 1A (antibody, V domains shown)
VH: EVQLVQSGAEVKKPGESLKISCKGSGYTFTSYGLSWVRQMPGKGLEWMGEIYPGSGNTYYNEKFKGQVTISADKSISTAYLQWSSLKASDTAMYYCARYDYLGSSYGFDYWGAGTTVTVSS
VL: DIQMTQSPSSLSASVGDRVTITCKASQDVSTAVAWYQQKPGKAPKLLLYSASYRYSGVPSRFSGSGSGTDYTLTISSLQPEDFATYYCQQHYNTPYTFGGGTKLEIK
B9: CL25_hu_11-5: humanized CL25 antibody, VH and VL in FIG. 1B (antibody, V domains shown)
VH: QVQLVQSGAEVKKPGASVKVSCKASGYTFTSYGLSWVRQATGQGLEWMGEIYPGSGNTYYNEKFKGRVTMTANTSISTAYMELSSLRSEDTAVYYCARYDYLGSSYGFDYWGAGTTVTVSS
VL: DIVMTQSPDSLAVSLGERATINCKASQDVSTAVAWYQQKPGQPPKLLIYSASYRYSGVPDRFSGSGSGTDFTLTISSLQAEDVAVYYCQQHYNTPYTFGGGTKLEIK
B10: CL25_hu_9-6: humanized CL25 antibody, VH and VL in FIG. 1C (antibody, V domains shown)
VH: QVQLVQSGAEVKKPGSSVKVSCKASGYTFTSYGLSWVRQAPGQGLEWMGEIYPGSGNTYYNEKFKGRVTITADESTSTAYMELSSLRSEDTAVYYCARYDYLGSSYGFDYWGAGTTVTVSS
VL: AIRMTQSPSSFSASTGDRVTITCKASQDVSTAVAWYQQKPGKAPKLLIYSASYRYSGVPSRFSGSGSGTDFTLTISCLQSEDFATYYCQQHYNTPYTFGGGTKLEIK
B11: CL25_hu_8-5: humanized CL25 antibody, VH and VL in FIG. 1B (antibody, V domains shown)
VH: QVQLVQSGAEVKKPGASVKVSCKASGYTFTSYGLSWVRQATGQGLEWMGEIYPGSGNTYYNEKFKGRVTMTRNTSISTAYMELSSLRSEDTAVYYCARYDYLGSSYGFDYWGAGTTVTVSS
VL: DIVMTQSPDSLAVSLGERATINCKASQDVSTAVAWYQQKPGQPPKLLIYSASYRYSGVPDRFSGSGSGTDFTLTISSLQAEDVAVYYCQQHYNTPYTFGGGTKLEIK

In patent US12060433B2, “CD73 inhibitor and A2A/A2B adenosine receptor inhibitor combination therapy” (Incyte Corporation, priority 2020, dated 2024) one finds ka and kd data, which are given here for 11 molecules.

For the experiment, the target named is T1, human CD73 (SEQ ID NO: 70). The experiment in a line: SPR (Biacore 8K) binding affinity and kinetics to human CD73. The following applies: human CD73, open conformation, 25° C. As for the experimental part: The SPR running buffer (10 mM HEPES, 150 mM NaCl, 3 mM EDTA and 0.05% v/v Surfactant P20, pH 7.4) was prepared from 10×HBS-EP Buffer (GE Healthcare). Anti-human Fc antibodies (GE Healthcare) were immobilized via amine coupling on all sixteen flow cells of an S series sensor chip CM5 (GE Healthcare). The immobilization levels were ˜9000 RU for all flow cells. The desired capturing level of anti-CD73 antibody was achieved by flowing appropriate concentration of anti-CD73 antibody through the active flow cell of each channel. The non-cleavable ADP analogue APCP (adenosine-5′-(α,β-methylene) diphosphate) with the presence of Zn^2+ can be used to shift the CD73 conformational equilibrium from open towards closed. Therefore, recombinant CD73 was incubated with SPR running buffer in the presence of 100 μM APCP and 10 μM ZnCl2 (closed SPR running buffer) to study the binding of anti-CD73 antibody to the CD73 in the closed conformation. To achieve this, the ABA injection feature in Biacore 8K was used. For open conformation, the ABA injection sequence started with 60 seconds injection of running buffer. Then, CD73 3-fold serial dilution concentration series prepared from CD73 stock (BPS Bioscience) and running buffer were injected for 180 seconds immediately followed by running buffer for 240 seconds. For closed conformation, the normal SPR running buffer was replaced by closed SPR running buffer. Surface was regenerated with 30 seconds injection of 3 M MgCl2. […] Binding affinities and kinetic association and dissociation rate constants to human, cynomolgus, and mouse CD73 in either open or closed conformations are shown in Table 8 below. The results in Table 8 ensure cynomolgus pharmacokinetic data will reflect human pharmacokinetic data.
Binding affinities and kinetic association and dissociation rate constants to human, cynomolgus, and mouse CD73 in either open or closed conformations are shown in Table 9 below.
(In general: In SPR one partner is held on a chip, and binding of the other changes the refractive index at the surface.)
B1 registered a ka of 770000 M⁻¹ s⁻¹ and a kd of 0.00176 s⁻¹.
Molecule B2 returned a ka of 565000 M⁻¹ s⁻¹ and a kd of 0.00114 s⁻¹.
The molecule B3 had a ka of 624000 M⁻¹ s⁻¹ and a kd of 0.00155 s⁻¹.
As for B4, the ka is 715000 M⁻¹ s⁻¹ and the kd amounted to 0.00111 s⁻¹.
For B5, in that order: 524000 M⁻¹ s⁻¹ and 0.00092 s⁻¹.
On the same counts, the results for B6 are 382000 M⁻¹ s⁻¹ and 0.00264 s⁻¹.
For B7, in that order: 550000 M⁻¹ s⁻¹ and 0.00101 s⁻¹.
B8 displayed a ka of 887000 M⁻¹ s⁻¹ and a kd of 0.00107 s⁻¹.
For B9, in that order: 799000 M⁻¹ s⁻¹ and 0.00117 s⁻¹.
For B10, in that order: 424000 M⁻¹ s⁻¹ and 0.000953 s⁻¹.
On the same counts, the results for B11 are over 1e+06 M⁻¹ s⁻¹ and 0.000949 s⁻¹.
